Assay results as given in patent publication US6762290, “High affinity vascular endothelial growth factor (VEGF) receptor nucleic acid ligands and inhibitors” (Gilead Sciences, Inc.).
Changes are numbered by the printed parent chain.

B1: K1 (ssRNA)
RNA: GGGAGGACGAUGCGGGGCCUGUUUGGAUCAUACCGAUCGUCAAUCCAAGAGUGGUCAGACGACUCGCCCGA
modifications: 2'-F pyrimidines
B2: K2 (ssRNA)
RNA: B1 RNA with A47U, G49A
modifications: 2'-F pyrimidines
B3: K13 (ssRNA)
RNA: GGGAGGACGAUGCGGAACCAAUUAAGUCUGGCAAAUCUCUCUGUGCAGACGACUCGCCCGA
modifications: 2'-F pyrimidines
B4: K23 (ssRNA)
RNA: GGGAGGACGAUGCGGACACACACAUCAUAAACAUUGUCCGUUGACCAGACGACUCGCCCGA
modifications: 2'-F pyrimidines
B5: K7 (ssRNA)
RNA: GGGAGGACGAUGCGGACGAUAACACAGGGCCUGCUUGGAUCACACUGAUUGCGCCCAGACGACUCGCCCGA
modifications: 2'-F pyrimidines
B6: K4 (ssRNA)
RNA: GGGAGGACGAUGCGGAGGUGCUCCUUUGGAACUUCGUAUUUGUCUGCUCCUGGUCAGACGACUCGCCCGA
modifications: 2'-F pyrimidines
B7: K21 (ssRNA)
RNA: GGGAGGACGAUGCGGAUCAUACCGAAGAGACACGGGGCCACCAUAUCCUCACCCCCAGACGACUCGCCCGA
modifications: 2'-F pyrimidines
B8: K12 (ssRNA)
RNA: GGGAGGACGAUGCGGAAACGGAAGAAUUGGAGACCGACGUCGACCUCUUGGCCCCAGACGACUCGCCCGA
modifications: 2'-F pyrimidines
B9: K10 (ssRNA)
RNA: GGGAGGACGAUGCGGUUGAUCGAGGUUCUAAGGCCUAUUUCCUGACUUUCUCCCCCAGACGACUCGCCCGA
modifications: 2'-F pyrimidines
B10: K11 (ssRNA)
RNA: B9 RNA with G32A
modifications: 2'-F pyrimidines
B11: K5 (ssRNA)
RNA: GGGAGGACGAUGCGGCAUGGGGCCUGACUGGAUCAUACCACCGCUUCCUCUGGUCAGACGACUCGCCCGA
modifications: 2'-F pyrimidines
B12: K3 (ssRNA)
RNA: B11 RNA with C47U
modifications: 2'-F pyrimidines

How the values were obtained:
[1] = biological target: T1, VEGFR2 (KDR) extracellular domain/Fc (Homo sapiens, UniProt P35968 P35968:20-764); experiment: filter; conditions: tags: C-terminal human IgG1 Fc fusion with Factor Xa site and His6; R&D Systems; NSO mouse myeloma cells; chain copies: 2 (stated, disulfide-linked homodimer)
T1 sequence (P35968 20-764, one chain of several): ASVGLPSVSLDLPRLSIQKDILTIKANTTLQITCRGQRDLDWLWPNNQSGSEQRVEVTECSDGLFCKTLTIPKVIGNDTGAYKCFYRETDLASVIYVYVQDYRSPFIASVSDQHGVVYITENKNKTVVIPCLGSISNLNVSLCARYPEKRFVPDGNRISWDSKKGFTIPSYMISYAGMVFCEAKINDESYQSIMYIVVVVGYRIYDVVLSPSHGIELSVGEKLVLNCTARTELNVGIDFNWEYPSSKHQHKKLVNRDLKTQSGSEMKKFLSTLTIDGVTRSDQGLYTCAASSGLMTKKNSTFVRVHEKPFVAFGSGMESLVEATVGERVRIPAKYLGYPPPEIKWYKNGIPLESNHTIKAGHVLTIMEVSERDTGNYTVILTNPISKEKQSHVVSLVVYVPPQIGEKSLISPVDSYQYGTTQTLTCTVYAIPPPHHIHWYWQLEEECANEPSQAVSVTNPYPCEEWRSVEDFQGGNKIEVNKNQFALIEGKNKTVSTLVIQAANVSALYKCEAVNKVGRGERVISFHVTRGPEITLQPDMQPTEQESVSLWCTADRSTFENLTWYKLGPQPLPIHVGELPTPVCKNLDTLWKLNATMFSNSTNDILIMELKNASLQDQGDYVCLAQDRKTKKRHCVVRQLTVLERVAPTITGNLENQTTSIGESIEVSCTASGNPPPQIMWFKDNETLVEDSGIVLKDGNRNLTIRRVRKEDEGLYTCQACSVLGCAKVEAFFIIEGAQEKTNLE

[2] = biological target: T1, VEGFR2 (KDR) extracellular domain/Fc; experiment: filter; 30N clone; conditions: tags: C-terminal human IgG1 Fc fusion with Factor Xa site and His6; R&D Systems; NSO mouse myeloma cells; chain copies: 2 (stated, disulfide-linked homodimer)
[3] = biological target: T2, VEGF receptors on HUVEC (VEGFR2/KDR) (Homo sapiens, UniProt P35968 P35968:20-1356); experiment: competition; inhibition of 125I-VEGF-165 binding to HUVEC
T2 sequence (P35968 20-1356, one chain of several): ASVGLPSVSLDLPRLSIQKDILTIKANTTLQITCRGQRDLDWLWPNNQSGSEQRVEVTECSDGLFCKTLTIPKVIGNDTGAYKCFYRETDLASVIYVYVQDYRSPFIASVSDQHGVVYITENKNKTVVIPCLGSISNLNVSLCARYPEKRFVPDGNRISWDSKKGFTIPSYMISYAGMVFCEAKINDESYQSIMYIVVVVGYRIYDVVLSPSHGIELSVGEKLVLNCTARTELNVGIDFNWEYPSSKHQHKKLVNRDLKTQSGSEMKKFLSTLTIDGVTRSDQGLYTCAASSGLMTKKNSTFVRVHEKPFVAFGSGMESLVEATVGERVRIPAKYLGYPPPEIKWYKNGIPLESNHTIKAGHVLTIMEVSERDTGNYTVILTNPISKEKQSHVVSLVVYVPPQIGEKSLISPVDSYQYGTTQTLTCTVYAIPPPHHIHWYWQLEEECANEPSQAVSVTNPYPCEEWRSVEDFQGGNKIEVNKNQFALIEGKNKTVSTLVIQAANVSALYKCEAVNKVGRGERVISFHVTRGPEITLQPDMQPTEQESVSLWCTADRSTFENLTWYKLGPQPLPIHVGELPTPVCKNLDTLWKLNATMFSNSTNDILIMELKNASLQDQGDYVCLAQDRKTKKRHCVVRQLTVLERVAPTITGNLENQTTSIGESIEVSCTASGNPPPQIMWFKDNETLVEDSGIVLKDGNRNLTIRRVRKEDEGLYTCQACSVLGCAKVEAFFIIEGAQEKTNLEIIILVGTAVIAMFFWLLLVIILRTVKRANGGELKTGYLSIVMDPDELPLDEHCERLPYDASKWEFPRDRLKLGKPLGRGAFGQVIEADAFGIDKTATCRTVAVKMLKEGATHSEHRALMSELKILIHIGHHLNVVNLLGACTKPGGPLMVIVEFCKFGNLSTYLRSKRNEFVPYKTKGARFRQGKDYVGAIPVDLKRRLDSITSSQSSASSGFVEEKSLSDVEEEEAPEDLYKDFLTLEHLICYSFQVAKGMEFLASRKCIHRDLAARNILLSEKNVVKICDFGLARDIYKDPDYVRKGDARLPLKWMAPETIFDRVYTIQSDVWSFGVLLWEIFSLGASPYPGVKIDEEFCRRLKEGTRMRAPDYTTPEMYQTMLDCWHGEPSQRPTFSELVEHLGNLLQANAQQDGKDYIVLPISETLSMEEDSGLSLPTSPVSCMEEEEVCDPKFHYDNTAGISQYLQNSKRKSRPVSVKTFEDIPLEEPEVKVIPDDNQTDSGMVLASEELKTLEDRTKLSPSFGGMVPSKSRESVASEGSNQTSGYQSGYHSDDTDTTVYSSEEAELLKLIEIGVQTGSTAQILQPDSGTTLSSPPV
Procedure: (§1) We next examined whether a group of representative aptamers was able to inhibit the binding of [125]I-VEGF-165 to VEGF receptors expressed on HUVECs. Cells were seeded in 96-well plates at a density of about 10,000 cells/well and maintained until confluent. Culture medium was then replaced with growth factor deficient medium (MEM, 5% heat inactivated fetal bovine serum, 1 µg/ml heparin) for 3–4 hours. Cells were then washed with Dulbecco's phosphate-buffered saline (DPBS) (containing 1 mM CaCl_2, 1 mM MgCl_2 and 0.1% bovine serum albumin) followed by the addition of 100 µl/well of DPBS. [125]I-VEGF-165 ([…]) in the presence of varying amounts of aptamers (0.001–1000 nM) was then added to cells for 2 hours at room temperature. Unbound [125]I-VEGF-165 was then removed by washing with DPBS and the cells were lysed with Triton X-100. Lysates were harvested onto glass fiber filters plates and processed for scintillation counting. Aptamers K1, K10, K17 and K21 were tested. […] Thus, among the VEGFR2 aptamers tested, both receptor binding antagonists and non-antagonists have been identified.

[4] = biological target: T1, VEGFR2 (KDR) extracellular domain/Fc; experiment: filter; circularly permuted family member; conditions: tags: C-terminal human IgG1 Fc fusion with Factor Xa site and His6; R&D Systems; NSO mouse myeloma cells; chain copies: 2 (stated, disulfide-linked homodimer)
[5] = biological target: T2, VEGF receptors on HUVEC (VEGFR2/KDR); experiment: competition; inhibition of 125I-VEGF-165 binding to HUVEC, DPBS with Ca, Mg, room temperature
Procedure: as §1

[6] = biological target: T1, VEGFR2 (KDR) extracellular domain/Fc; experiment: filter; Table 2 prints CCACGGC where listing has ccaccgc; conditions: tags: C-terminal human IgG1 Fc fusion with Factor Xa site and His6; R&D Systems; NSO mouse myeloma cells; chain copies: 2 (stated, disulfide-linked homodimer)

| Binder | Kd [1] [nM] | also measured |
| --- | --- | --- |
| B1 | 0.07 |  |
| B2 | 0.27 |  |
| B3 |  | Kd [2]: 0.75 nM |
| B4 |  | Kd [2]: 2.2 nM |
| B5 | 0.46 |  |
| B6 | 0.28 |  |
| B7 |  | IC50 [3]: 79 nM; Kd [4]: 0.26 nM |
| B8 | 15.4 |  |
| B9 | 0.47 | IC50 [5]: 1 nM |
| B10 | 0.61 |  |
| B11 | 0.44 |  |
| B12 |  | Kd [6]: 0.51 nM |
